System: target antigen-expressing cell line
Test: Jurkat NFAT-GFP assay, coculture with target cell lines expressing the respective target antigen (summary Table 10A)
Assay type: cell-based, human
Set-up: key: The signs +/−, +, 2+ etc. after the name of the cell lines indicate the relative degree of positivity on the Jurkat-NFAT-GFP assay as measured by the % GFP positive cells; +: relative degree of positivity on the Jurkat-NFAT-GFP assay as measured by the % GFP positive cells; 2+: relative degree of positivity on the Jurkat-NFAT-GFP assay as measured by the % GFP positive cells
Conditions: relative % GFP positive cells; for NFAT-GFP ASSAY Positive Cell lines: RAJI: SIR-expressing Jurkat-NFAT-GFP cells cocultured with RAJI; for NFAT-GFP ASSAY Positive Cell lines: NALM6: SIR-expressing Jurkat-NFAT-GFP cells cocultured with NALM6
Summary of the method: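 Readout is % GFP+ cells by FACS, graded +/− to 2+ relative to parental reporter cells. Jurkat-NFAT-GFP cells stably transduced with SIR constructs (puromycin-selected) were mixed with target-antigen-expressing cell lines at roughly 1:2 effector:target and cocultured ~4–18 h.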

B1: 091216-A03 (protein)
chain: MALPVTALLLPLALLLHAARPLEGKPIPNPLLGLDSTGSGEDLKNVFPPEVAVFEPSKAEIAHTQKATLVCLATGFYPDHVELSWWVNGKEVHSGVCTDPQPLKEQPALNDSRYCLSSRLRVSATFWQNPRNHFRCQVQFYGLSENDEWTQDRAKPVTQIVSAEAWGRADCGITSASYHQGVLSATILYEILLGKATLYAVLVSALVLMAMVKRKDSRGRAKRSGSGATNFSLLKQAGDVEENPGPTSTMALPVTALLLPLALLLHAARPDIQMTQSPSSLSASVGDRVTITCRSSQSIVHSVGNTFLEWYQQKPGKAPKLLIYKVSNRFSGVPSRFSGSGSGTDFTLTISSLQPEDFATYYCFQGSQFPYTFGQGTKVEIKRGGGGSGGGGSGGGGSEVQLVESGGGLVQPGGSLRLSCAASGYEFSRSWMNWVRQAPGKGLEWVGRIYPGDGDTNYSGKFKGRFTISADTSKNTAYLQMNSLRAEDTAVYYCARDGSSWDWYFDVWGQGTLVTVSSTREQKLISEEDGSGIQNPDPAVYQLRDSKSSDKSVCLFTDFDSQTNVSQSKDSDVYITDKCVLDMRSMDFKSNSAVAWSNKSDFACANAFNNSIIPEDTFFPSSDVPCDVKLVEKSFETDTNLNFQNLSVIGFRILLLKVAGFNLLMTLRLWSSRAKRSGSGVKQTLNFDLLKLAGDVESNPGPSRGHMTEYKPTVRLATRDDVPRAVRTLAAAFADYPATRHTVDPDRHIERVTELQELFLTRVGLDIGKVWVADDGAAVAVWTTPESVEAGAVFAEIGPRMAELSGSRLAAQQQMEGLLAPHRPKEPAWFLATVGVSPDHQGKGLGSAVVLPGVEAAERAGVPAFLETSAPRNLPFYERLGFTVTADVEVPEGPRTWCMTRKPGA
modifications: Synthetic Immune Receptor (SIR)
- NFAT-GFP ASSAY Positive Cell lines: RAJI: RAJI (+)

B2: 050516-V06 (protein)
chain: MALPVTALLLPLALLLHAARPDIVMTQSPSSLSASVGDRVTITCKASQSVTNDVAWYQQKPGKAPKLLIYYASNRYTGVPSRFSGSGSGTDFTLTISSLQPEDFATYYCQQDYRSPWTFGGGTKVEIKRLEGKPIPNPLLGLDSTGSGEDLKNVFPPEVAVFEPSKAEIAHTQKATLVCLATGFYPDHVELSWWVNGKEVHSGVCTDPQPLKEQPALNDSRYCLSSRLRVSATFWQNPRNHFRCQVQFYGLSENDEWTQDRAKPVTQIVSAEAWGRADCGITSASYHQGVLSATILYEILLGKATLYAVLVSALVLMAMVKRKDSRGRAKRSGSGATNFSLLKQAGDVEENPGPTSMDWIWRILFLVGAATGAHSFEQVQLEESGGGVVRPGRSLRLSCAASGFTFSDYGVNWIRQAPGKGLEWVTIIWGDGRTDYNSALKSRFTVSRNNSNNTLSLQMNSLTTEDTAVYYCVRAPGNRAMEYWGQGVLVTVSSTREQKLISEEDGSGIQNPDPAVYQLRDSKSSDKSVCLFTDFDSQTNVSQSKDSDVYITDKCVLDMRSMDFKSNSAVAWSNKSDFACANAFNNSIIPEDTFFPSSDVPCDVKLVEKSFETDTNLNFQNLSVIGFRILLLKVAGFNLLMTLRLWSSRAKRSGSGVKQTLNFDLLKLAGDVESNPGPSRGHMTEYKPTVRLATRDDVPRAVRTLAAAFADYPATRHTVDPDRHIERVTELQELFLTRVGLDIGKVWVADDGAAVAVWTTPESVEAGAVFAEIGPRMAELSGSRLAAQQQMEGLLAPHRPKEPAWFLATVGVSPDHQGKGLGSAVVLPGVEAAERAGVPAFLETSAPRNLPFYERLGFTVTADVEVPEGPRTWCMTRKPGA
modifications: Synthetic Immune Receptor (SIR)
- NFAT-GFP ASSAY Positive Cell lines: RAJI: RAJI (+/−)

B3: 081516-I03 (protein)
chain: MALPVTALLLPLALLLHAARPLEGKPIPNPLLGLDSTGSGEDLKNVFPPEVAVFEPSKAEIAHTQKATLVCLATGFYPDHVELSWWVNGKEVHSGVCTDPQPLKEQPALNDSRYCLSSRLRVSATFWQNPRNHFRCQVQFYGLSENDEWTQDRAKPVTQIVSAEAWGRADCGITSASYHQGVLSATILYEILLGKATLYAVLVSALVLMAMVKRKDSRGRAKRSGSGATNFSLLKQAGDVEENPGPTSTMALPVTALLLPLALLLHAARPDIVMTQSPSSLSASVGDRVTITCKASQSVTNDVAWYQQKPGKAPKLLIYYASNRYTGVPSRFSGSGSGTDFTLTISSLQPEDFATYYCQQDYRSPWTFGGGTKVEIKRGGGGSGGGGSGGGGSQVQLEESGGGVVRPGRSLRLSCAASGFTFSDYGVNWIRQAPGKGLEWVTIIWGDGRTDYNSALKSRFTVSRNNSNNTLSLQMNSLTTEDTAVYYCVRAPGNRAMEYWGQGVLVTVSSTREQKLISEEDLGSGTPFPSLAPPIMLLVDGKQQMVVVCLVLDVAPPGLDSPIWFSAGNGSALDAFTYGPSPATDGTWTNLAHLSLPSEELASWEPLVCHTGPGAEGHSRSTQPMHLSGEASTARTCPQEPLRGTPGGALWLGVLRLLLFKLLLFDLLLTCSCLCDPAGPLPSPATTTRLRALGSHRLHPATETGGREATSSPRPQPRDRRWGDTPPGRKPGSPVRAKRSGSGVKQTLNFDLLKLAGDVESNPGPSRSRGHMTEYKPTVRLATRDDVPRAVRTLAAAFADYPATRHTVDPDRHIERVTELQELFLTRVGLDIGKVWVADDGAAVAVWTTPESVEAGAVFAEIGPRMAELSGSRLAAQQQMEGLLAPHRPKEPAWFLATVGVSPDHQGKGLGSAVVLPGVEAAERAGVPAFLETSAPRNLPFYERLGFTVTADVEVPEGPRTWCMTRKPGA
modifications: Polynucleotide encoding a Synthetic Immune Receptor (SIR)
- NFAT-GFP ASSAY Positive Cell lines: RAJI: RAJI (+/−)

B4: 012517-E12 (protein)
chain: MALPVTALLLPLALLLHAARPLEGKPIPNPLLGLDSTGSGEDLKNVFPPEVAVFEPSKAEIAHTQKATLVCLATGFYPDHVELSWWVNGKEVHSGVCTDPQPLKEQPALNDSRYCLSSRLRVSATFWQNPRNHFRCQVQFYGLSENDEWTQDRAKPVTQIVSAEAWGRADCGITSASYHQGVLSATILYEILLGKATLYAVLVSALVLMAMVKRKDSRGRAKRSGSGATNFSLLKQAGDVEENPGPTSMALPVTALLLPLALLLHAARPDIQMTQTTSSLSASLGDRVTISCRASQDISNYLNWYQQKPDGTVKLLIYYTSILHSGVPSRFSGSGSGTDYSLTISNLEQEDFATYFCQQGNTLPWTFGGGTKLEIKAGGGGSGGGGSGGGGSEVQLVESGGGLVKPGGSLKLSCAASGFAFSIYDMSWVRQTPEKRLEWVAYISSGGGTYYPDTVKGRFTISRDNAKNTLYLQMSSLKSEDTAMYYCARHSGYGTHWGVLFAYWGQGTLVTVSATREQKLISEEDGSGIQNPDPAVYQLRDSKSSDKSVCLFTDFDSQTNVSQSKDSDVYITDKCVLDMRSMDFKSNSAVAWSNKSDFACANAFNNSIIPEDTFFPSSDVPCDVKLVEKSFETDTNLNFQNLSVIGFRILLLKVAGFNLLMTLRLWSSRAKRSGSGVKQTLNFDLLKLAGDVESNPGPSRGHMTEYKPTVRLATRDDVPRAVRTLAAAFADYPATRHTVDPDRHIERVTELQELFLTRVGLDIGKVWVADDGAAVAVWTTPESVEAGAVFAEIGPRMAELSGSRLAAQQQMEGLLAPHRPKEPAWFLATVGVSPDHQGKGLGSAVVLPGVEAAERAGVPAFLETSAPRNLPFYERLGFTVTADVEVPEGPRTWCMTRKPGA
- NFAT-GFP ASSAY Positive Cell lines: NALM6: (+/−)
- NFAT-GFP ASSAY Positive Cell lines: RAJI: RAJI (+), NALM6

B5: 040417-R02 (protein)
chain: MALPVTALLLPLALLLHAARPEVQLVESGGGLVQPGRSLRLSCAASGFTFDDYAMHWVRQAPGKGLEWVSGISWNSGSIGYADSVKGRFTISRDNAKNSLYLQMNSLRAEDTALYYCAKDKGGGYYDFWSGSDYWGQGTLVTVSSLEDLKNVFPPEVAVFEPSKAEIAHTQKATLVCLATGFYPDHVELSWWVNGKEVHSGVCTDPQPLKEQPALNDSRYCLSSRLRVSATFWQNPRNHFRCQVQFYGLSENDEWTQDRAKPVTQIVSAEAWGRADCGITSASYHQGVLSATILYEILLGKATLYAVLVSALVLMAMVKRKDSRGRAKRSGSGATNFSLLKQAGDVEENPGPTSMDWIWRILFLVGAATGAHSFESSELTQDPAVSVALGQTVRITCQGDSLRSYYASWYQQKPGQAPVLVIYGKNNRPSGIPDRFSGSSSGNTASLTITGAQAEDEADYYCNSRDSSGWVFGGGTKLTVLTRIQNPDPAVYQLRDSKSSDKSVCLFTDFDSQTNVSQSKDSDVYITDKCVLDMRSMDFKSNSAVAWSNKSDFACANAFNNSIIPEDTFFPSSDVPCDVKLVEKSFETDTNLNFQNLSVIGFRILLLKVAGFNLLMTLRLWSSRAKRSGSGVKQTLNFDLLKLAGDVESNPGPSRGHMTEYKPTVRLATRDDVPRAVRTLAAAFADYPATRHTVDPDRHIERVTELQELFLTRVGLDIGKVWVADDGAAVAVWTTPESVEAGAVFAEIGPRMAELSGSRLAAQQQMEGLLAPHRPKEPAWFLATVGVSPDHQGKGLGSAVVLPGVEAAERAGVPAFLETSAPRNLPFYERLGFTVTADVEVPEGPRTWCMTRKPGA
- NFAT-GFP ASSAY Positive Cell lines: NALM6: (+)

B6: 041216-C05 (protein)
chain: MALPVTALLLPLALLLHAARPDIQMTQSPSSLSASVGDRVTITCRSSQSIVHSVGNTFLEWYQQKPGKAPKLLIYKVSNRFSGVPSRFSGSGSGTDFTLTISSLQPEDFATYYCFQGSQFPYTFGQGTKVEIKRLEGKPIPNPLLGLDSTGSGEDLKNVFPPEVAVFEPSKAEIAHTQKATLVCLATGFYPDHVELSWWVNGKEVHSGVCTDPQPLKEQPALNDSRYCLSSRLRVSATFWQNPRNHFRCQVQFYGLSENDEWTQDRAKPVTQIVSAEAWGRADCGITSASYHQGVLSATILYEILLGKATLYAVLVSALVLMAMVKRKDSRGRAKRSGSGATNFSLLKQAGDVEENPGPTSMDWIWRILFLVGAATGAHSFEEVQLVESGGGLVQPGGSLRLSCAASGYEFSRSWMNWVRQAPGKGLEWVGRIYPGDGDTNYSGKFKGRFTISADTSKNTAYLQMNSLRAEDTAVYYCARDGSSWDWYFDVWGQGTLVTVSSTREQKLISEEDGSGTPFPSLAPPIMLLVDGKQQMVVVCLVLDVAPPGLDSPIWFSAGNGSALDAFTYGPSPATDGTWTNLAHLSLPSEELASWEPLVCHTGPGAEGHSRSTQPMHLSGEASTARTCPQEPLRGTPGGALWLGVLRLLLFKLLLFDLLLTCSCLCDPAGPLPSPATTTRLRALGSHRLHPATETGGREATSSPRPQPRDRRWGDTPPGRKPGSPVRAKRSGSGVKQTLNFDLLKLAGDVESNPGPSRGHMTEYKPTVRLATRDDVPRAVRTLAAAFADYPATRHTVDPDRHIERVTELQELFLTRVGLDIGKVWVADDGAAVAVWTTPESVEAGAVFAEIGPRMAELSGSRLAAQQQMEGLLAPHRPKEPAWFLATVGVSPDHQGKGLGSAVVLPGVEAAERAGVPAFLETSAPRNLPFYERLGFTVTADVEVPEGPRTWCMTRKPGA
modifications: Polynucleotide encoding a Synthetic Immune Receptor (SIR)
- NFAT-GFP ASSAY Positive Cell lines: NALM6: (+/−)
- NFAT-GFP ASSAY Positive Cell lines: RAJI: RAJI (+/−), NALM6

Reference: patent publication US12269859B2, “Synthetic immune receptors and methods of use thereof” (Angeles Therapeutics, Inc., priority 2016, dated 2025)
